The source of these data is patent publication US20230303994.

B1: trypsin variant SEQ ID NO: 81 (protein)
chain: IVGGYTCAANSIPYQVSLNSGSHRCGGSLINSQWVVSAAHCYKSRIQVRLGEHNIHVLEGNEQFINAAKIITHPNFNPNTLDNDIMLIKLSSPATLNSHVATVSLPTSCAAAGTECLISGWGNTASSGSSMPSLLQCLKAPVLSDSSCKSSYPGQITGNMICVGFLEGGKDACQGDSGGPVVCNGQLQGIVSSGYGCAQKNKPGVYTKVCNYVNWIQQTIAAN
B2: trypsin variant SEQ ID NO: 96 (protein)
chain: B1 chain with S44P, H56D, T107R, A125S, K170A
B3: trypsin variant SEQ ID NO: 86 (protein)
chain: B1 chain with S44P, H56D, H99A, A125S
B4: trypsin variant SEQ ID NO: 85 (protein)
chain: B1 chain with S44P, A125C
B5: trypsin variant SEQ ID NO: 94 (protein)
chain: B1 chain with S44P, P78G, H99N, T107R, A125C, K170A
B6: trypsin variant SEQ ID NO: 10 (protein)
chain: B1 chain with H56D, P78G, H99T, T107R, A125K, M131Y
B7: trypsin variant SEQ ID NO: 82 (protein)
chain: B1 chain with S44P, T107R, A125C
B8: trypsin variant SEQ ID NO: 84 (protein)
chain: B1 chain with S44P, H99N, A125S, A172S
B9: trypsin variant SEQ ID NO: 91 (protein)
chain: B1 chain with S44P, H99A, A125S
B10: trypsin variant SEQ ID NO: 83 (protein)
chain: B1 chain with S44P, H99N, A125S
B11: trypsin variant SEQ ID NO: 11 (protein)
chain: B1 chain with H56D, P78G, H99N, T107R, A125K, M131Y
B12: trypsin variant SEQ ID NO: 90 (protein)
chain: B1 chain with S44P, A172S
B13: trypsin variant SEQ ID NO: 89 (protein)
chain: B1 chain with S44P
B14: trypsin variant SEQ ID NO: 92 (protein)
chain: B1 chain with S44P, H99A, A125C
B15: trypsin variant SEQ ID NO: 88 (protein)
chain: B1 chain with S44P, A125S, A172S
B16: trypsin variant SEQ ID NO: 93 (protein)
chain: B1 chain with H56D, H99N, A125C, K170A
B17: trypsin variant SEQ ID NO: 95 (protein)
chain: B1 chain with S44P, T107R, A125S, K170A
B18: trypsin variant SEQ ID NO: 87 (protein)
chain: B1 chain with S44P, A125S

Substitutions are numbered along the chain they refer to.

The target in the first data set is pre-pro-human insulin.
Consider B1, for which the “Activity PPI cleavage” value is given as “yes” and the Selectivity is more than 90%.

As for B2, the “Activity PPI cleavage” value is “yes” and the Selectivity is listed as more than 90%.

For B3, the “Activity PPI cleavage” value is on record as “yes” and the Selectivity was more than 90%.

With B4, the “Activity PPI cleavage” value is on record as “yes” and the Selectivity is recorded as more than 90%.

Turning to B5, the “Activity PPI cleavage” value was “yes” and the Selectivity is given as more than 90%.

In the case of B6, the “Activity PPI cleavage” value was “yes” and the Selectivity was more than 90%.

With B7, the “Activity PPI cleavage” value is “yes” and the Selectivity is more than 90%.

On to B8, for which the “Activity PPI cleavage” value is reported as “yes” and the Selectivity is more than 90%.

For the protein B9, the “Activity PPI cleavage” value is given as “yes” and the Selectivity is given as more than 90%.

With B10, the “Activity PPI cleavage” value was “yes” and the Selectivity was more than 90%.

Turning to B11, the “Activity PPI cleavage” value was “yes” and the Selectivity is on record as more than 90%.

For the protein B12, the “Activity PPI cleavage” value was “yes” and the Selectivity is more than 90%.

Regarding B13, the “Activity PPI cleavage” value is “yes” and the Selectivity is reported as more than 90%.

As to B14, the “Activity PPI cleavage” value is listed as “yes” and the Selectivity was more than 90%.

Take B15: the “Activity PPI cleavage” value is “yes” and the Selectivity was more than 90%.

In the case of B16, the “Activity PPI cleavage” value is listed as “yes” and the Selectivity is recorded as more than 90%.

With B17, the “Activity PPI cleavage” value is “yes” and the Selectivity is more than 90%.

Turning to B18, the “Activity PPI cleavage” value is on record as “yes” and the Selectivity is on record as more than 90%.

The next data set addresses pre-pro-insulin glargine.
Turning to B1, the Purity Insulin Glargine was 89.7 area %, the Yield was more than 90%, the desArg is 1.2 area % and the desThr was 0.5 area %.

B2 displayed a Purity Insulin Glargine of 78.7 area %, a Yield of more than 80%, a desArg of 0.7 area % and a desThr of 0.3 area %.

Protein B3 registered a Purity Insulin Glargine of 79.3 area %, a Yield of more than 80%, a desArg of 0.8 area % and a desThr of 0.1 area %.

B4 gave a Purity Insulin Glargine of 85.4 area %, a Yield of more than 90%, a desArg of 1.1 area % and a desThr of 0.2 area %.

B5: the Purity Insulin Glargine worked out at 85.2 area %, the Yield is more than 90%, the desArg amounted to 0.8 area % and the desThr amounted to 0.3 area %.

Protein B6 came in with a Purity Insulin Glargine of 82.7 area %, a Yield of more than 90%, a desArg of less than 0.5 area % and a desThr of 2.6 area %.

Regarding B7, the Purity Insulin Glargine came to 83.8 area %, the Yield was more than 80%, the desArg turned out to be 0.6 area % and the desThr was determined as 0.3 area %.

With B8, the Purity Insulin Glargine was determined as 85.4 area %, the Yield was more than 90%, the desArg was determined as 0.6 area % and the desThr was 1.6 area %.

In turn, B9 registered a Purity Insulin Glargine of 86.8 area %, a Yield of more than 90%, a desArg of 1 area % and a desThr of 0.3 area %.

With B10, the Purity Insulin Glargine is 89 area %, the Yield was more than 90%, the desArg was less than 0.5 area % and the desThr was 1.2 area %.

On to B11, for which the Purity Insulin Glargine was determined as 84.1 area %, the Yield was more than 90%, the desArg is less than 0.5 area % and the desThr turned out to be 2.2 area %.

Protein B12 displayed a Purity Insulin Glargine of 89.5 area %, a Yield of more than 90%, a desArg of 0.9 area % and a desThr of 0.2 area %.

B13 yielded a Purity Insulin Glargine of 88.1 area %, a Yield of more than 90%, a desArg of 0.5 area % and a desThr of 1.2 area %.

Take B14: the Purity Insulin Glargine was 88.1 area %, the Yield is more than 90%, the desArg was 0.9 area % and the desThr came to 0.6 area %.

In turn, B15 showed a Purity Insulin Glargine of 84.3 area %, a Yield of more than 90%, a desArg of 0.7 area % and a desThr of 1.9 area %.

The protein B16 registered a Purity Insulin Glargine of 71.3 area %, a Yield of more than 75%, a desArg of 0.7 area % and a desThr of 0.3 area %.

B17 yielded a Purity Insulin Glargine of 90 area %, a Yield of more than 90%, a desArg of 1 area % and a desThr of 0.6 area %.

As for B18, the Purity Insulin Glargine stood at 83.8 area %, the Yield is more than 80%, the desArg turned out to be 0.6 area % and the desThr was found to be 0.3 area %.
